# Source: patent US20240287527, “VIRAL PROTEIN […] […] AND METHODS OF USE IN DIAGNOSTICS, […] PURPOSES” (AYASS BIOSCIENCE LLC, published 2024)
# B1: SB3L (AYA2012004_L) (ssDNA)
# DNA: TAGGGAAGAGAAGGACAATGATTTTGGGCGGGTTGAGGTGGGGGAGGAGGAGGTAGTTAGAGTTGACTAGTACATGACCACTTGA
# B2: AYA2012004_L-M1 (ssDNA)
# DNA: TAGGGAAGAGAAGGACAATGATTTTGGGCGGGTTGA
# B3: AYA2012004_L-M2 (structured_DNA)
# DNA 1: TTTTTTAGGGAAGAGAAGGACAATGATTTTGGGCGGGTTGA
# DNA 2: AAAAATAGGGAAGAGAAGGACAATGATTTTGGGCGGGTTGA
# Legend:
# [1] = target: ACE2/ACEH (Homo sapiens, UniProt Q9BYF1 Q9BYF1:18-740); assay: SPR; conditions: tags: Fc-tag, ACRO Biosystems AC2-H5257; chain copies: 2
# [2] = target: SARS-CoV-2 nucleocapsid protein (SARS-CoV-2, UniProt P0DTC9 P0DTC9:1-419); assay: SPR; conditions: tags: AcroBiosystems C5227 / RayBiotech 230-01104
# [3] = target: SARS-CoV-2 full-length S protein on lentiviral VLP (SARS-CoV-2, UniProt P0DTC2 P0DTC2:14-1273); assay: cell_activity; conditions: protein: virion, tags: GenTarget VLP001, GFP reporter VLP, chain copies: 3 (inferred)
Binder,binding result [1],binding result [2],"activity ([3]; label: 5'-biotin, two hairpins (predicted))",activity [3]
B1,no binding,no binding,~70 % inhibition,
B2,no binding,no binding,,~50 % inhibition
B3,no binding,no binding,,~60 % inhibition
